Data from the supplement of paper PMC10065799, “High-throughput profiling of sequence recognition by tyrosine kinases and SH2 domains using bacterial peptide display” (eLife, 2023).

Assays:
Grb2 SH2 = Grb2 SH2 (UniProt P62993); assay: SH2 binding enrichment of the phosphorylated peptide, bacterial display (enrichment ratio); higher = better substrate or ligand; peptides without Tyr show the background
c-Src SH2 = assay: as above
SHP2-C SH2 = assay: as above
Fyn = Fyn (UniProt P06241); assay: phosphorylation enrichment, bacterial display (enrichment ratio); higher = better substrate or ligand; peptides without Tyr show the background
EPHB2 = EPHB2 (UniProt P29323); assay: as above
EPHB1 = EPHB1 (UniProt P54762); assay: as above
Fer (mouse) = assay: as above
Jak2 = Jak2 (UniProt O60674); assay: as above
Hck = Hck (UniProt P08631); assay: as above
MERTK = MERTK (UniProt Q12866); assay: as above
c-Abl (mouse) = assay: as above
FGFR3 = FGFR3 (UniProt P22607); assay: as above
Fes = Fes (UniProt P07332); assay: as above
FGFR1 = FGFR1 (UniProt P11362); assay: as above
AncSZ = assay: as above
c-Src = assay: as above
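For SH2 binding enrichment of the phosphorylated peptide, bacterial display in this document: peptide library displayed on the E. coli surface as eCPX fusions, selected cells deep-sequenced, score is each peptide's frequency after selection divided by its frequency in the input.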
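For phosphorylation enrichment, bacterial display in this document: 11-residue human phosphosite peptides and single-mutation variants displayed on the E. coli surface, counted by deep sequencing, each peptide's frequency after selection divided by its frequency in the unselected input library; frequency after pTyr selection over input frequency; kinase dosed for 20-30% of maximal phosphorylation in three min.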

Sequence of MERTK (Q12866 whole entry, looked up): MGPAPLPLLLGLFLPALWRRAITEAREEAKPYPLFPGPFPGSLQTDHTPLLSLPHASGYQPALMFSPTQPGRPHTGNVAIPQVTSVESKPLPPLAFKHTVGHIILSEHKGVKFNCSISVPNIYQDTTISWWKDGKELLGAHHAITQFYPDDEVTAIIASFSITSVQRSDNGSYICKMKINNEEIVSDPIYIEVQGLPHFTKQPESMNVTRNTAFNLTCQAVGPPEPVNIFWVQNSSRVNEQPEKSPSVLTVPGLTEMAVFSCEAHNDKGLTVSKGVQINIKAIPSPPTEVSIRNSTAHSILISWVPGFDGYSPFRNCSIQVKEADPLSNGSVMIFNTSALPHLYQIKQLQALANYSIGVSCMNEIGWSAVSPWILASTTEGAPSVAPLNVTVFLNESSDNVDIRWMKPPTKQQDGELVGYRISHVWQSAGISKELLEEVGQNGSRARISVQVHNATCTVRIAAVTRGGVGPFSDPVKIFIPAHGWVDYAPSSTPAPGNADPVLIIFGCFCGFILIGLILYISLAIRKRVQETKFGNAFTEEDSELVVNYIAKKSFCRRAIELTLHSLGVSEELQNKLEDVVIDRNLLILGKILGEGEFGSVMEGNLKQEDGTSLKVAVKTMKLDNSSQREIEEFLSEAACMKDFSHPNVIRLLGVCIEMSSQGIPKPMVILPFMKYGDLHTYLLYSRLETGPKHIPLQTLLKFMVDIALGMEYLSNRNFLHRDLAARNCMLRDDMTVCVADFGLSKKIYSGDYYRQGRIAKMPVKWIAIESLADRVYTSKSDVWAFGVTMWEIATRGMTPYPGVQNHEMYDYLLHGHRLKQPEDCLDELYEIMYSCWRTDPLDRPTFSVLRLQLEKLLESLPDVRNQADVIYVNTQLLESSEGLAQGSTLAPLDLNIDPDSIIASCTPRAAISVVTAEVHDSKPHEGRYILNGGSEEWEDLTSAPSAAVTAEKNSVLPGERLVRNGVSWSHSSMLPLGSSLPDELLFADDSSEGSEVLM
Sequence of FGFR3 (P22607 whole entry, looked up): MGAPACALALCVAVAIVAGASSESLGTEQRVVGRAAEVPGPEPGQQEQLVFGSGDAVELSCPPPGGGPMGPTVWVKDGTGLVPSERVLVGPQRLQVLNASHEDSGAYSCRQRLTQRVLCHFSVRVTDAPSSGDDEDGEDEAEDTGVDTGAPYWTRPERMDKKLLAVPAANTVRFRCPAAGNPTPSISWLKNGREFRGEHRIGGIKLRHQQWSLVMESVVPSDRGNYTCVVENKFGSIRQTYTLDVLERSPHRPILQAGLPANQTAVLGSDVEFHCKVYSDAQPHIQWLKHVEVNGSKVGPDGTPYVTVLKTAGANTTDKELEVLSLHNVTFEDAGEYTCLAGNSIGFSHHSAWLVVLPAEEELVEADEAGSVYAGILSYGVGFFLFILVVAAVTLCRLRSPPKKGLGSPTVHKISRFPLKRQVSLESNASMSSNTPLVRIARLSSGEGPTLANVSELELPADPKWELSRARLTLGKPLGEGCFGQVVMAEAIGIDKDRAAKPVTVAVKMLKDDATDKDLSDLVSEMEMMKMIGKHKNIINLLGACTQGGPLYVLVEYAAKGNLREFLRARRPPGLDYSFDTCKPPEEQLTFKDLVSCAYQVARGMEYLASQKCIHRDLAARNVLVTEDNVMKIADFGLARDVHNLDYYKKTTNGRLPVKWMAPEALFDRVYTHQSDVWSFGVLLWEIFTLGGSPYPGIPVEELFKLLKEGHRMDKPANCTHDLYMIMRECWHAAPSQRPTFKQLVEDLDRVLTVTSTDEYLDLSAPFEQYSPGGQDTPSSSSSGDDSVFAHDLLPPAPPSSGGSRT
Sequence of Grb2 SH2 (P62993 whole entry, looked up): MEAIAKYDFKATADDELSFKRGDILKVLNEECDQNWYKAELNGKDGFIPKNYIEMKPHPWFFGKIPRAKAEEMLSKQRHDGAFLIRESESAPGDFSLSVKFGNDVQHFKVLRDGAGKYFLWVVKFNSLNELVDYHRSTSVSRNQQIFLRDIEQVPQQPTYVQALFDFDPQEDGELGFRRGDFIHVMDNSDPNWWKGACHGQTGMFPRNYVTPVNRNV
Sequence of Fes (P07332 whole entry, looked up): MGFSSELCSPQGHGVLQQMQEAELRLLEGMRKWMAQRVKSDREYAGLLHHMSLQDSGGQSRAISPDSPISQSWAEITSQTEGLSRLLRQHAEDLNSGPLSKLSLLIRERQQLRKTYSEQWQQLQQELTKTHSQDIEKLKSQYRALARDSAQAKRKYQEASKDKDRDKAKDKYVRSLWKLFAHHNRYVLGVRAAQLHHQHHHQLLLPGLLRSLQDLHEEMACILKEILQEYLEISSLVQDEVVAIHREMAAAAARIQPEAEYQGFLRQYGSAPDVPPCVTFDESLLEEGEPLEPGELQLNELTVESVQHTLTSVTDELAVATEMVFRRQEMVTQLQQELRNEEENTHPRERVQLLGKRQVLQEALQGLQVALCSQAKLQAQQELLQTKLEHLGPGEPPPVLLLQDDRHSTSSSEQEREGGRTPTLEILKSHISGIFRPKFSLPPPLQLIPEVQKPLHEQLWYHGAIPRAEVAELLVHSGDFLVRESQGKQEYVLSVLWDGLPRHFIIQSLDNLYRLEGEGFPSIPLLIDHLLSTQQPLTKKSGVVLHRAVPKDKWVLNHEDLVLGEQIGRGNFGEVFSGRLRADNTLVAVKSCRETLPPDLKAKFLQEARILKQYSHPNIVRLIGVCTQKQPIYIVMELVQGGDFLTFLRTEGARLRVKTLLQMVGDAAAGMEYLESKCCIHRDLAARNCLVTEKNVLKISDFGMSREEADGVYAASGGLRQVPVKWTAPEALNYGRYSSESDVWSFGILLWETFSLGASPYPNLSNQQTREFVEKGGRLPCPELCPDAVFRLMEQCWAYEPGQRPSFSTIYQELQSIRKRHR
Sequence of Fyn (P06241 whole entry, looked up): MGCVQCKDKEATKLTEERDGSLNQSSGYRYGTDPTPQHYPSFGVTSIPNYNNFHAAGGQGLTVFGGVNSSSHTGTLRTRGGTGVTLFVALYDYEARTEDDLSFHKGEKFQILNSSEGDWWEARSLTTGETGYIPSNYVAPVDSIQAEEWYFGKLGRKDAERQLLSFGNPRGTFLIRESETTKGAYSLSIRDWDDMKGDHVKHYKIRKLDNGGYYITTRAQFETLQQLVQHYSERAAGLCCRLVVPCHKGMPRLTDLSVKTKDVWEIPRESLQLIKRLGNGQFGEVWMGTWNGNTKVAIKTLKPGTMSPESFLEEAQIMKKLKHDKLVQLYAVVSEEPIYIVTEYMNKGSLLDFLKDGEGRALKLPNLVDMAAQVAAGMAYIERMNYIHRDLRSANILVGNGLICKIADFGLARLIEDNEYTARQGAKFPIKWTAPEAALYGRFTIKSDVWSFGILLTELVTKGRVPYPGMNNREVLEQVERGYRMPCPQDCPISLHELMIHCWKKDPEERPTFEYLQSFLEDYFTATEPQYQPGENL
Sequence of FGFR1 (P11362 whole entry, looked up): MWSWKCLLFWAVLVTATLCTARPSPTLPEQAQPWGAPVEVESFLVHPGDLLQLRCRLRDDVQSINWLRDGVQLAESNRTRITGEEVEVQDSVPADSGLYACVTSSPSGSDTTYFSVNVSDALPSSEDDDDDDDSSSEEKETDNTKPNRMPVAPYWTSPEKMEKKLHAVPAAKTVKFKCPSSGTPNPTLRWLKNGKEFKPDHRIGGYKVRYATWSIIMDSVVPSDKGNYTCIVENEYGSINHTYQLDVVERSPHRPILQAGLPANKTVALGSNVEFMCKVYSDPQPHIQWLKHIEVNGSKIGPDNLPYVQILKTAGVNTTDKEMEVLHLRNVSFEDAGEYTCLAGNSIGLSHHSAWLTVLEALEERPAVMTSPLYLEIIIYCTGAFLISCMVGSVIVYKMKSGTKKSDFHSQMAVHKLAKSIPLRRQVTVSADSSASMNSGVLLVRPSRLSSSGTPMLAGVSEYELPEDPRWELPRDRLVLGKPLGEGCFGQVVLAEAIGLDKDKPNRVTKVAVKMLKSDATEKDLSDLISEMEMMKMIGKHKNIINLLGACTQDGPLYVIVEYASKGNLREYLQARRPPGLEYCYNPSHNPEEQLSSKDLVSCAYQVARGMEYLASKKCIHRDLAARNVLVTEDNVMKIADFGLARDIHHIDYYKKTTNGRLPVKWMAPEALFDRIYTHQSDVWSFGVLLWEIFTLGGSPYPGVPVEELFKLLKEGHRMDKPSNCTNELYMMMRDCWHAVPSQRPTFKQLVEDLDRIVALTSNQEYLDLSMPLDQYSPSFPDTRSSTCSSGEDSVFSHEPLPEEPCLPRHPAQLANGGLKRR
Sequence of Hck (P08631 whole entry, looked up): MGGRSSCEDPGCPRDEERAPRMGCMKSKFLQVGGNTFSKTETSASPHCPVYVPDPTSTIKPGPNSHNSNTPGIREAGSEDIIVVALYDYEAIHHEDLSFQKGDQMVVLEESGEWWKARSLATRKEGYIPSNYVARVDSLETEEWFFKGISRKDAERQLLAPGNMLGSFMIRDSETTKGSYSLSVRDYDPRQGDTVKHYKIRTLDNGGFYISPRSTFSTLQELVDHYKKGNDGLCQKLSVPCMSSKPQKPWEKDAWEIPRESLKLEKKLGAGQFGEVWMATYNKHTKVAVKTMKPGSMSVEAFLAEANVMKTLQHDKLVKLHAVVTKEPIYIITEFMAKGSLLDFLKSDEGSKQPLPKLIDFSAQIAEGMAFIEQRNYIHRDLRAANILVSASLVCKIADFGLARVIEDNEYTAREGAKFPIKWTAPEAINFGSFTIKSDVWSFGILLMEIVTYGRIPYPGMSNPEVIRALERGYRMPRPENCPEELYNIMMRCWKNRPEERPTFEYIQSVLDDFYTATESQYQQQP

| Sequence | SH2 binding enrichment (Grb2 SH2) | SH2 binding enrichment (c-Src SH2) | SH2 binding enrichment (SHP2-C SH2) | phosphorylation enrichment (Fyn) | phosphorylation enrichment (EPHB2) | phosphorylation enrichment (EPHB1) | phosphorylation enrichment (Fer (mouse)) | phosphorylation enrichment (Jak2) | phosphorylation enrichment (Hck) | phosphorylation enrichment (MERTK) | phosphorylation enrichment (c-Abl (mouse)) | phosphorylation enrichment (FGFR3) | phosphorylation enrichment (Fes) | phosphorylation enrichment (FGFR1) | phosphorylation enrichment (AncSZ) | phosphorylation enrichment (c-Src) |
| --- | --- | --- | --- | --- | --- | --- | --- | --- | --- | --- | --- | --- | --- | --- | --- | --- |
| YEPDAYDDLDQ [ELP5_Y302] | 0.767 | 1.07 | 0.764 | 0.496 | 0.523 | 0.542 | 0.663 | 0.919 | 0.548 | 0.403 | 0.769 | 0.842 | 1.19 | 0.56 | 1.26 | 0.482 |
| HQIQSYTCEID [DES_Y331] | 0.951 | 0.774 | 0.786 | 0.628 | 0.802 | 0.7 | 0.349 | 1.44 | 0.675 | 0.595 | 0.767 | 0.882 | 1.27 | 0.822 | 0.927 | 0.502 |
| PADQAYSWYQH [NDST1_Y711_R709Q] | 0.802 | 0.63 | 0.488 | 1.17 | 0.674 | 0.755 | 20.6 | 0.765 | 1.37 | 3.75 | 0.6 | 3.15 | 1.57 | 5.18 | 1.55 | 1.58 |
| DLAGRYYALKS [CKB_Y173] | 0.824 | 1.47 | 0.722 | 0.538 | 0.419 | 0.406 | 0.597 | 1.58 | 0.726 | 1.65 | 0.577 | 0.85 | 0.878 | 1.04 | 0.572 | 0.571 |
| PHIKTYMRPSP [TDP1_Y497] | 0.829 | 0.695 | 0.777 | 0.861 | 0.518 | 0.645 | 0.543 | 0.586 | 0.441 | 0.429 | 0.654 | 0.547 | 0.688 | 0.629 | 0.702 | 0.435 |
| VHNLDYFKETT [FGFR3_Y647_K650E_YF] | 1.11 | 0.457 | 0.668 | 0.437 | 0.5 | 0.469 | 0.438 | 0.723 | 0.446 | 0.425 | 0.598 | 0.614 | 0.854 | 0.597 | 0.853 | 0.445 |
| FEREQYADRAR [RBM4_Y355_YF] | 0.956 | 0.536 | 0.567 | 0.484 | 0.446 | 0.414 | 0.394 | 0.515 | 0.426 | 0.331 | 0.464 | 0.587 | 0.727 | 0.426 | 0.626 | 0.396 |
| EKMWTYMPSAE [GRIA4_Y695_R697P] | 0.92 | 0.524 | 0.444 | 0.377 | 0.474 | 0.504 | 0.396 | 0.652 | 0.509 | 0.363 | 0.538 | 0.623 | 0.841 | 0.448 | 0.768 | 0.329 |
| LQLLGYRPVYS [CHST6_Y358] | 1.02 | 0.783 | 0.962 | 0.916 | 0.873 | 0.954 | 0.49 | 0.979 | 0.581 | 0.426 | 0.911 | 0.91 | 1.24 | 0.718 | 1.29 | 0.559 |
| NQSVRYDSSLK [ABCC8_Y1353_L1349Q] | 0.675 | 0.404 | 0.609 | 0.461 | 0.491 | 0.484 | 0.57 | 0.556 | 0.429 | 0.423 | 0.487 | 0.456 | 0.601 | 0.341 | 0.523 | 0.433 |
| DTDSSYCIPIA [GAB1_Y373_T377I] | 0.88 | 0.551 | 0.441 | 0.467 | 0.721 | 0.829 | 0.483 | 0.925 | 0.413 | 1.16 | 0.82 | 0.706 | 1.05 | 0.586 | 2.21 | 0.435 |
| GADDSYFTARS [ZAP70_Y492_YF] | 0.723 | 0.402 | 0.566 | 0.457 | 0.44 | 0.299 | 0.417 | 0.577 | 0.444 | 0.406 | 0.401 | 0.51 | 0.79 | 0.557 | 0.657 | 0.417 |
| LKALHYMVQTS [SACS_Y3367] | 0.77 | 0.721 | 0.794 | 0.362 | 0.512 | 0.546 | 0.428 | 0.653 | 0.43 | 0.385 | 0.533 | 0.459 | 0.858 | 0.39 | 0.808 | 0.398 |
| SREDIYKRNIE [PDE4DIP_Y45] | 0.767 | 0.403 | 0.753 | 0.591 | 0.553 | 0.422 | 0.431 | 0.7 | 0.603 | 0.366 | 0.654 | 0.585 | 0.81 | 0.5 | 0.659 | 0.405 |
| QDLTDYLMKIL [ACTA2_Y190_R185Q] | 1.33 | 0.861 | 1.23 | 0.657 | 0.772 | 0.523 | 0.558 | 1.34 | 0.916 | 0.809 | 1.13 | 0.698 | 1.55 | 0.807 | 1.01 | 0.546 |
| HFVDEYDPTME [KRAS_Y32_I36M] | 0.802 | 0.717 | 0.448 | 0.614 | 0.437 | 0.727 | 1.11 | 1.33 | 0.702 | 0.66 | 1.31 | 0.633 | 1.49 | 0.424 | 1.5 | 0.634 |
| AIDDKYSRREE [SART1_Y685] | 0.937 | 0.44 | 0.968 | 0.51 | 0.511 | 0.431 | 0.434 | 0.794 | 0.465 | 0.439 | 0.471 | 0.578 | 0.939 | 0.488 | 0.806 | 0.426 |

| Sequence | SH2 binding enrichment (Grb2 SH2) | SH2 binding enrichment (c-Src SH2) | SH2 binding enrichment (SHP2-C SH2) | phosphorylation enrichment (Fyn) | phosphorylation enrichment (EPHB2) | phosphorylation enrichment (EPHB1) | phosphorylation enrichment (Fer (mouse)) | phosphorylation enrichment (Jak2) | phosphorylation enrichment (Hck) | phosphorylation enrichment (MERTK) | phosphorylation enrichment (c-Abl (mouse)) | phosphorylation enrichment (FGFR3) | phosphorylation enrichment (Fes) | phosphorylation enrichment (FGFR1) | phosphorylation enrichment (AncSZ) | phosphorylation enrichment (c-Src) |
| --- | --- | --- | --- | --- | --- | --- | --- | --- | --- | --- | --- | --- | --- | --- | --- | --- |
| QTEAEYRFIFM [PTPN11_Y511_Q510E_YF] | 0.643 | 0.364 | 0.39 | 0.511 | 0.762 | 0.59 | 0.847 | 1.24 | 0.626 | 0.618 | 0.912 | 1.42 | 1.32 | 1.46 | 1.29 | 0.525 |
| LEVPLYKNGVK [CPS1_Y1069_A1065E] | 0.845 | 0.472 | 0.491 | 0.759 | 0.43 | 0.715 | 0.66 | 0.643 | 0.655 | 0.625 | 0.693 | 1.11 | 0.997 | 0.944 | 1.28 | 0.321 |
| NTGNYYDLYGG [PTPN11_Y63_D61N] | 1.08 | 2.49 | 0.854 | 6.39 | 20.1 | 18.3 | 2.82 | 2.42 | 6.84 | 9.28 | 1.01 | 12.6 | 0.984 | 15.7 | 1.73 | 5.29 |
| VTAALYGCLFE [BTD_Y536_R538C_YF] | 0.85 | 0.52 | 0.606 | 5.63 | 1.03 | 0.916 | 1.1 | 1.13 | 3.97 | 1.54 | 1.02 | 0.998 | 1.55 | 0.602 | 1.3 | 4.03 |
| CEQELYSQLVF [WAS_Y102_W97C_YF] | 0.933 | 0.515 | 0.553 | 6.89 | 2.2 | 1.84 | 10.7 | 1.24 | 6.76 | 6.07 | 0.987 | 1.79 | 1.44 | 1.66 | 1.59 | 5.87 |
| YMKEPYIQSRF [HIPK4_Y175_V171M] | 1.12 | 0.865 | 0.832 | 0.461 | 0.392 | 0.364 | 0.488 | 0.855 | 0.36 | 0.659 | 0.632 | 0.623 | 0.703 | 0.611 | 0.622 | 0.563 |
| SECCKYKTDNP [OSMR_Y689_I691T] | 0.852 | 0.48 | 0.901 | 0.375 | 0.413 | 0.472 | 0.387 | 0.725 | 0.452 | 0.492 | 0.587 | 0.655 | 0.752 | 0.51 | 0.66 | 0.443 |
| SSYSGYIMMPN [LEF1_Y114] | 0.905 | 1.99 | 1 | 0.571 | 1.09 | 0.923 | 0.604 | 5.39 | 0.51 | 2.47 | 0.486 | 2.38 | 0.718 | 3.79 | 0.858 | 0.684 |
| TKLKDYYIFNK [CCDC42_Y149_A144T] | 1.05 | 0.88 | 1.1 | 0.579 | 0.691 | 0.811 | 0.538 | 1.49 | 0.752 | 1.28 | 0.736 | 3.16 | 0.91 | 4.92 | 1.02 | 1.37 |
| PSQRPYVYYYS [PTEN_Y174_R173P] | 1.61 | 3.29 | 2.81 | 1.43 | 0.676 | 0.652 | 0.64 | 2.58 | 1.02 | 7.73 | 1 | 3.08 | 1.09 | 4.69 | 1.44 | 2.78 |
| KKCTRYIDCDR [ASPA_Y64_L69R] | 0.974 | 0.839 | 0.633 | 0.323 | 0.445 | 0.402 | 0.406 | 0.691 | 0.37 | 0.461 | 0.72 | 0.542 | 1 | 0.417 | 0.832 | 0.427 |
| HLDRSYSYSYS [PEAR1_Y890_R885H] | 0.889 | 1.53 | 1.2 | 0.424 | 0.477 | 0.603 | 0.401 | 1.02 | 0.424 | 0.583 | 0.49 | 0.66 | 0.583 | 0.558 | 0.718 | 0.474 |
| SSVAGYACLAY [MVD_Y131_A128V] | 0.777 | 2.24 | 3 | 0.466 | 0.582 | 0.564 | 0.587 | 0.852 | 0.538 | 0.463 | 0.768 | 0.701 | 0.994 | 0.495 | 0.898 | 0.554 |
| ENRKFYKDLKE [PURA_Y156_M157K_YF] | 0.847 | 0.426 | 0.739 | 0.418 | 0.552 | 0.312 | 0.387 | 0.536 | 0.473 | 0.589 | 0.431 | 0.493 | 0.699 | 0.401 | 0.532 | 0.422 |
| EHFSFYGMKAV [SLC15A2_Y61_R57H_YF] | 0.795 | 0.41 | 0.629 | 0.473 | 0.601 | 0.498 | 0.48 | 0.901 | 0.846 | 0.417 | 0.624 | 0.615 | 1.04 | 0.441 | 0.868 | 0.579 |
| PSPTKYSLSPS [RANBP2_Y785_R784K] | 0.674 | 0.41 | 0.535 | 0.318 | 0.492 | 0.437 | 0.534 | 0.725 | 0.354 | 0.473 | 0.553 | 0.471 | 0.669 | 0.515 | 1.19 | 0.514 |
